Results reported in patent US20230137139A1, “BIOSYNTHESIS OF CANNABINOIDS AND C[…]” (priority 2020, published 2023).
Where a chain is given by its changes, count along the chain named.

B1: t861580 (protein)
chain: MGQTPSSPLADCLNAVCNGRDNCVAFPSAPLYQISWVDRYNLDIEVEPIAVTRPETAEDVSGFVKCAAAHNIKVQAKSGGHSYANYGLGGEDGELVVDLRNFQDFSIDTNTWQATFGAGHKLDDVTEKLHKNGKRAISHGTCPGVGIGGHATIGGLGPESRMWGSCLDHVIGVEVVTADGSIVHASDTENSDLFFALKGAGASFGIVTSFVVKTRPEPGSVVQYSYSVTFAKHADLSPVFRQWQELVMDPGLDRRFGTEFTMHELGVIISGTFYGTDEEFQATGIPDRIPKGKISVVFDDWMAVIAKHAEEAALSLSSISSAFTARSLAFRREDKISPETITNLMNYIDSADRGTLVWFLIFDATGGAISDVPTNATAYSHRDKVMYCQGYGVGIPTLNQQTKDFLSGIINTIQSGAGNTLTTYPGYVDPALTNPQESYWGPNIDTLRAIKSQWDPNDIFHNPQSVRPAAVAA
modifications: Monosporascus sp. mg162
B2: t861577 (protein)
chain: MGNTTSIAGRDCLISALGGNSALAAFPNQLLWTADVHEYNLNLPVTPAAITYPETAEQIAGIVKCASDYDYKVQARSGGHSFGNYGLGGTDGAVVVDMKHFNQFSMDDQTYEAVIGPGTTLNDVDIELYNNGKRAMAHGVCPTIKTGGHFTIGGLGPTARQWGLALDHVEEVEVVLANSSIVRASNTQNQDVLFAVKGAAADFGIVTEFKVRTEPAPGLAVQYSYTFNLGSTAEKAQFVKDWQSFISAKNLTRQFYNNMVIFDGDIILEGLFFGSKEQYDALGLEDHFAPKNPGNILVLTDWLGMVGHALEDTILKLVGNTPTWFYAKSLGFRQDTLIPSAGIDEFFEYIDNHTAGTPAWFVTLSLEGGAINDVAEDATAYAHRDVLFWVQLFMVNPLGPISETTYEFTDGLYDVLARAVPESVGHAYLGCPDPRMENAPQKYWRTNLPRLQELKEELDPKNTFHHPQGVIPA
B3: t861566 (protein)
chain: B2 chain with I14V, D107N, L193F, D351A
B4: t861587 (protein)
chain: B2 chain with I14V, D107N, L193F, D351A
B5: t861592 (protein)
chain: B2 chain
B6: t861583 (protein)
chain: MGNTTSIAGRDCLISALGGNSALAVFPNELLWTADVHEYNLNLPVTPAAITYPETAAQIAGVVKCASDYDYKVQARSGGHSFGNYGLGGADGAVVVDMKHFTQFSMDDETYEAVIGPGTTLNDVDIELYNNGKRAMAHGVCPTIKTGGHFTIGGLGPTARQWGLALDHVEEVEVVLANSSIVRASNTQNQDVFFAVKGAAANFGIVTEFKVRTEPAPGLAVQYSYTFNLGSTAEKAQFVKDWQSFISAKNLTRQFYNNMVIFDGDIILEGLFFGSKEQYDALGLEDHFAPKNPGNILVLTDWLGMVGHALEDTILKLVGNTPTWFYAKSLGFRQDTLIPSAGIDEFFEYIANHTAGTPAWFVTLSLEGGAINDVAEDATAYAHRDVLFWVQLFMVNPLGPISDTTYEFTDGLYDVLARAVPESVGHAYLGCPDPRMEDAQQKYWRTNLPRLQELKEELDPKNTFHHPQGVMPA
B7: t861558 (protein)
chain: B6 chain with V25A, A57E, V374I
B8: t861571 (protein)
chain: B6 chain with L398V
B9: t861574 (protein)
chain: B6 chain with V25A, A57E, V62I, V374I
B10: t861590 (protein)
chain: B6 chain with V25A, A57E, V374I
B11: t861589 (protein)
chain: B6 chain
B12: t861579 (protein)
chain: MGNTTSIAAGRDCLVSAVGPAHVTFQDALLYQTTAVDPYNLNIPVTPAAVTYPQSAEEIAAVVKCASDYDYKVQARSGGHSFGNYGLGGQNGAIVVDMKHFSQFSMDESTFVATIGPGTTLGDLDTELYNAGGRAMAHGICPTIRTGGHLTVGGLGPTARQWGLALDHIEEVEVVLANSSIVRASNTQNQDILFAVKGAAASFGIVTEFKVRTQEAPGLAVQYSFTFNLGSPAQKAKLVKDWQAFIAQENLSWKFYSNLVIFDGQIILEGIFFGSKEEYDELDLEKRFPTSEPGTVLVLTDWLGMIGHALEDTILKLVGDTPTWFYAKSLGFTPDTLIPDSAIDDFFDYIHKTNAGTLAWFVTLSLEGGAINSVSEDATAYGHRDVLFWFQVFVVNPLGPISQTTYDFTNGLYDVLAQAVPESAGHAYLGCPDPKMPDAQRAYWRSNLPRLEDLKGDLDPKDTFHNPQGVQVGP
B13: t861561 (protein)
chain: MGNTTSIAAGRDCLISAVGGNAAHVAFQDQLLYQATAVDVYNLNIPVTPAAVTYPQSADEVAAVVKCASEYDYKVQARSGGHSFGNYGLGGQNGAIVVDMKHFSQFSMDESTYTATIGPGITLGDLDTELYNAGHRAMAHGICPTIRTGGHLTIGGLGPTARQWGLALDHVEEVEVVLANSSIVRASETQNQDVLFAVKGAAASFGIVTEFKVRTEQAPGLAVQYSYTFNLGTPAEKAKLLKDWQAFIAQEDLTWKFYSNMVIFDGQIILEGIFFGSKEEYDALDLEKRFPTSEPGTLLVLTDWLGMVGHSLEDVILRLVGNTPTWFYAKSLGFTPRTLIPDSAIDRFFDYIHETNAGTLAWFVTLSLEGGAINAVPEDATAYGHRDVLFWVQIFMVNPLGPISQTIYDFADGLYDVLAQAVPESAEHAYLGCPDPKMPDAQRAYWRGNLPRLEELKGEFDPKDTFHNPQGVSVAV
B14: t861554 (protein)
chain: MGNTTSIAAGRDCLISAVGAANVAFQDQLLYQATAVQPYNLNIPVTPAAVTYPQSADEIAAVVKCASEYGYKVQARSGGHSFGNYGLGGQDGAIVIEMKHFSQFSMDESTFIATIGPGITLGDLDTDLYNAGHRAMAHGICPTIRTGGHLTVGGLGPTARQWGLALDHVEEVEVVLANSSIVRASDTQNQDLFFAIKGAAASFGIVTEFKVRTEQAPGMAVQYSYTFHLGTSAEKAKFVKDWQAFIAQENLTWKFYTNLVIFDDQIILEGIYFGTKEEYDSLGLEQRFPPTDAGTVLILTDWLAMIGHGLEDTILKLVGDTPTWFYAKSLGFTPRALIPDSAIDEFFDYIHENNPGTLAWFVTLSLEGGAINAVPEDATAYGHRDVLFWFQLFVINPLGPISQTTYGFADGLYDVLAQAVPESASHAYMGCPDPRMPNAQRAYWRSNLPKLEELKGYLDPEDIFHNPQGVVPS

Tested on: CBCA production
Assay: In vivo TS activity assay, Example 4 CBCAS enzymes with and without signal peptides, no pH adjustment
Type: cell-based
Conditions: strains with (Y) or without (N) N-terminal and C-terminal signal peptides; no pH adjustment at Day 4; S. cerevisiae
Experimental: An assay to detect TS activity was conducted as follows: each thawed glycerol stock of candidate CBCAS transformants was stamped into a well of YEP+4% dextrose media. Samples were incubated at 30° C. in a shaking incubator for 2 days. A portion of each of the resulting cultures was stamped into a well of YEP+4% galactose+1 mM olivetolic acid (FIG. 1 Structure 6a). Samples were incubated at 20° C. and shaken in a shaking incubator for 4 days. Every 24 hours during those 4 days, 2% galactose and 1 mM olivetolic acid were spiked into the cultures. Sodium citrate buffer adjusted to pH 5.5 was added to each well at a final concentration of 100 mM. Samples were incubated at 20° C. and shaken in a shaking incubator for 2 days. A portion of each of the resulting production cultures was stamped into a well of phosphate buffered saline (PBS). Optical measurements were taken on a plate reader, with absorbance measured at 600 nm and fluorescence at 528 nm with 485 nm excitation. Samples were incubated at 30° C. in a shaking incubator for 2 days. 100% methanol was stamped into the production cultures in half-height deepwell plates. Plates were heat sealed and frozen. Samples were then thawed for 30 min and spun down at 4° C. A portion of the supernatant was stamped into half-area 96 well plates. CBCA, THCA, and CBDA production in the samples was quantified via liquid chromatography-mass spectrometry (LC-MS).
A library of 20 CBCAS enzymes selected from Example 1 and 3 was synthesized, including versions of the CBCAS enzymes with and without the N-terminal MFalpha2 signal peptide (SEQ ID NO: 16) and C-terminal HDEL signal peptide (SEQ ID NO: 17). Each candidate enzyme expression construct was transformed into an S. cerevisiae CEN.PK strain that also expressed a prenyltransferase enzyme capable of catalyzing reaction R^4 in FIG. 2. Strain t861555 expressing the A. niger CBCAS identified in Example 1, carrying both the Mfalpha2 and HDEL signal peptides was included in the library screen as a positive control for enzyme activity. Strain t861565 expressed the same A. niger CBCAS without the Mfalpha2 and HDEL signal peptides.
The strains were screened using the assay described in Example 1 with the following exception: at Day 4 samples were not subjected to a pH adjustment and a further 2 days of incubation at 20° C.

Molecule | Average CBCA
B1 | 0.00 µg/L
B2 | 36869.19 µg/L
B3 | 61918.09 µg/L
B4 | 82883.01 µg/L
B5 | 74584.36 µg/L
B6 | 59260.52 µg/L
B7 | 27898.00 µg/L
B8 | 54271.76 µg/L
B9 | 38142.03 µg/L
B10 | 55852.93 µg/L
B11 | 95796.21 µg/L
B12 | 57912.84 µg/L
B13 | 46161.25 µg/L
B14 | 5334.71 µg/L
